These results are taken from publication PMC5173487 (Nature immunology, 2016).

Assay [1] addresses T1, His-tagged EPRS (amino acids 1–196) (human (by GenBank NM_004446.2), UniProt P07814 1-196).
T1 sequence (looked up): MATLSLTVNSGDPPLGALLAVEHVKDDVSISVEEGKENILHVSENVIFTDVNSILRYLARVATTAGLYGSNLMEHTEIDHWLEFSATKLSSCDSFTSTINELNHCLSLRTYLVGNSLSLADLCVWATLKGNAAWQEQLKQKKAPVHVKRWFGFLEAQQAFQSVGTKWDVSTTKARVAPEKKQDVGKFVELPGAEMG
In words: pull-down.

Assay [2] concerns the target GST-fused MAVS (amino acids 460–540) (UniProt Q7Z434 460-540). The assay is described as follows: pull-down.

Chain of GST-fused MAVS (amino acids 460–540) (Q7Z434 460-540): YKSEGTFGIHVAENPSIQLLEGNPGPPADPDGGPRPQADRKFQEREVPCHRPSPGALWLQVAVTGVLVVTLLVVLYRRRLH

B1: GST-fused PCBP2 (amino acids 11–82) (domain or fragment, UniProt Q15366 11-82, looked up)
chain: NVTLTIRLLMHGKEVGSIIGKKGESVKKMREESGARINISEGNCPERIITLAGPTNAIFKAFAMIIDKLEED
Consider B1, for which the binding result in assay [1] is on record as “binds”.

B2: His-tagged PCBP2 (amino acids 11–82) (domain or fragment, UniProt Q15366 11-82, looked up)
chain: NVTLTIRLLMHGKEVGSIIGKKGESVKKMREESGARINISEGNCPERIITLAGPTNAIFKAFAMIIDKLEED
Turning to B2, the binding result in assay [2] is “binds”.
